Usually EC50 stands for the concentration that produces a half-maximal response. A high value points to lower potency in that assay.

Here are results for 13 molecules from patent publication US20220396632A1 (VERSEAU THERAPEUTICS, published 2022).

Experiment [1] has as its target T1, PSGL-1 endogenously expressed on HL-60 cells (UniProt Q14242 42-412).
T1 construct: whole, on cells
T1 sequence (looked up): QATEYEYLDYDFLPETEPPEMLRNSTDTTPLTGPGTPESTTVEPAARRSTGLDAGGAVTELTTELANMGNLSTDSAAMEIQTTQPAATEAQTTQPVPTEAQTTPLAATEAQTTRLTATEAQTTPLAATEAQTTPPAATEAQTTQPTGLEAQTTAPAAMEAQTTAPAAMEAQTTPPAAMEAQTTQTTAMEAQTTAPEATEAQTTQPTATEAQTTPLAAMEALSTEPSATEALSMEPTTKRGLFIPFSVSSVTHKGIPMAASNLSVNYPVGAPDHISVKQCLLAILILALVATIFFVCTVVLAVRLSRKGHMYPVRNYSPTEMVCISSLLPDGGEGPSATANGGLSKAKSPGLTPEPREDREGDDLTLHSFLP
Description: flow cytometry on HL-60 cells; against parent 19L04. The procedure: (§1) A typical flow cytometry assay was performed by resuspending HL-60 cells in FACS buffer (5% FBS and 0.05% Sodium Azide in PBS, pH 7.2) on ice, pelleting cells by centrifugation at 500×g for 3 min, washing cells with FACS buffer, and then blocking Fc receptors on the cells with Fc block (human TruStain FcX™, BioLegend Cat. #422302) on ice for 10 min. After washing, 50,000 cells/50 ul in FACS buffer was added to each well of a 96-well round bottomed plate (Costar, Cat. #3797), and 50 ul of serially diluted (0.06 nM-1.0 uM) test or isotype control antibody was added into duplicate wells. The plate was covered and incubated on ice for 1 h. After washing, Phycoerythrin (PE) conjugated anti-human IgG secondary antibody (Abcam; Cat. #ab99825) was added to each well and the plate incubated in the dark on ice for 30 min. After washing, the cells were fixed (1% paraformaldhyde).

The target of experiment [2] is T1, PSGL-1 endogenously expressed on HL-60 …. The experiment in a line: flow cytometry on HL-60 cells. The procedure: as §1
For orientation: A flow cytometer gives signals particle by particle.

Experiment [3] concerns the target T2, Cynomolgus PSGL-1(ECD)-HIS (cynomolgus macaque).
T2 construct: also called Cyno PSGL1-His
T2 chain: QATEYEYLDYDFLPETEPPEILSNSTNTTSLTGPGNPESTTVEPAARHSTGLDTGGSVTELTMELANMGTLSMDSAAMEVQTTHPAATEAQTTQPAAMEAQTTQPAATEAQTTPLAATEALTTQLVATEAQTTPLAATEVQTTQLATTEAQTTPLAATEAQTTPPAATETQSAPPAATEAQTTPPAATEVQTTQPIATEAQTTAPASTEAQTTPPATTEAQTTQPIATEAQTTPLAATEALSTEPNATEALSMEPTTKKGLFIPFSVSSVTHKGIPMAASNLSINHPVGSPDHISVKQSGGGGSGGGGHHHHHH
The experiment in a line: ELISA, plate cyno PSGL-1(ECD)-HIS. The procedure:
Antibody binding to plate-immobilized cyno PSGL-1(ECD) was determined either at one concentration (20 nM) or by generating full antibody binding curves (0.003-200 nM). A typical ELISA was performed by overnight coating at 4° C. with 3 ug/mL/25 ul per well of recombinant cyno PSGL-1(ECD) protein in PBS, pH 7.4, in high binding half-well plates (Corning Cat. #3690). […] Anti-PSGL-1 IgG in assay buffer (blocking buffer containing 0.05% tween 20) was added into test and control wells (20 nM/25 ul/well) and the plate incubated for 45 min at 37° C. […] The plate was incubated for 45 min at 37° C., and mAb bound to plate-immobilized target determined at A450 nm using HRP substrate (3,3′,5,5′-tetramethylbenzidine (TMB)). For each antibody, duplicate values were averaged and assay background subtracted.
A general note: In an ELISA, binding on a coated surface is turned into a signal by an enzyme label.

The target in experiment [4] is T3, Scrambled Y46,48,51(SO3) PSGL-1(42-62) biotin peptide (sulfotyrosine at peptide positions 5, 7 and 10; C-terminal Lys-biotin).
T3 construct: also called scrambled sulfated peptide: biotin
T3 peptide: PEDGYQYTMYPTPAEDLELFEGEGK
The experiment in a line: ELISA, immobilized biotin peptide. In short, it runs like this: (§2)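 In this ELISA, half-well high binding plates (Corning Cat. #3690) received 3 ug/mL/25 ul per well of biotin-tagged PSGL-1 peptides covering residues 42 to 62, diluted in PBS, pH 7.4, and coated overnight at 4° C. Duplicate readings for each antibody were averaged and the average assay background was subtracted. PSGL-1 protein or peptide was the positive control.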

Experiment [5] deals with T4, Biotin sY51 PSGL-1(42-62) peptide (human, sulfotyrosine at Y51; C-terminal Lys-biotin).
T4 construct: also called Y51(SO3) PSGL-1(42-62)
T4 peptide: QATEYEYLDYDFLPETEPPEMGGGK
Description: ELISA, immobilized biotin peptide. An outline of the steps: as §2

In experiment [6] the target is T5, Biotin PSGL-1(42-62) peptide, unmodified (human, C-terminal Lys-biotin).
T5 construct: Residues 42-62 followed by GGGK-biotin; also called WT; wild-type
T5 peptide: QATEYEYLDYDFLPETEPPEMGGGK
The experiment in a line: ELISA, immobilized biotin peptide. An outline of the steps: as §2

For experiment [7], the target named is T6, Recombinant human PSGL-1(ECD)-hFc1 (R&D Systems, Cat. 3345-PS) (human, UniProt Q14242 42-305).
T6 construct: Bought; Gln42-Val295 counted on AAC50061; also called PSGL-1-Fc; PSGL-1-hFc1 chimera; not shown: human IgG1 Fc, Pro100-Lys330
T6 sequence: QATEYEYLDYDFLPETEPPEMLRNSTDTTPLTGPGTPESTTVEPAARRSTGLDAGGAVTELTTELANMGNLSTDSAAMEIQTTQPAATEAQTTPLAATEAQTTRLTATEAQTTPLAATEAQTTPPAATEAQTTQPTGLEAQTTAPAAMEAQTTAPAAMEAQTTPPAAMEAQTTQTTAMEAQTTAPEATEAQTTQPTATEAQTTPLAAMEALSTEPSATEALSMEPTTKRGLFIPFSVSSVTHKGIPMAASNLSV
The experiment in a line: blocking ELISA vs VISTA-Fc, pH 6.0.

The target in experiment [8] is T6, Recombinant human PSGL-1(ECD)-hFc1 (R&D …). Description: blocking ELISA vs P-selectin-Fc. The procedure: (§3) A typical selectin blocking ELISA assay involved coating high binding half-well plates (Corning, Cat. #3690) with 2.5 ug/mL/25 ul per well of recombinant PSGL-1-Fc protein (R&D Systems, Cat #3345-PS) in PBS, pH 7.4, overnight at 4° C. […] Antibody (test and controls) was serially diluted (25 ul/well) in duplicate in assay buffer (3% BSA in wash buffer) into appropriate wells and the plate incubated for 45 min at 37° C. […] The plate was washed ×3 and HRP-conjugated streptavidin was added in assay buffer [25 ul per well; (Jackson Immunoresearch, Cat. #016-030-084)] and the plate incubated for 45 min at 37° C. […] For each antibody, an IC50 value was determined from sigmoidal fitted titration curves.

For experiment [9] the target is unchanged. Description: blocking ELISA vs L-selectin-Fc. The procedure:
as §3

The target of experiment [10] is T1, PSGL-1 endogenously expressed on HL-60 …. The experiment in a line: flow cytometry on HL-60 cells; against parent 20I15. The procedure:
as §1

Changes are numbered by the printed parent chain.

B1: 19L04.002 (antibody, IgG4, V domains shown)
VH: QIQLVQSGSELKKPGASVKVSCKASGYTFTTYGMSWVRQAPGQGLKWMGWINTYSGVPTYADDFKGRFVFSLDTSVSTAYLQISSLKAEDTAVYFCARHYYGSHYFDYWGQGTLVTVSS
VL: DIVMTQSPDSLAVSLGERATIRCKSSQSLLSSSNQKNYLAWYQQKPGQPPKLLVYFASTRESGVPDRFSGSGSGTDFTLTISSLQAEDVAVYYCQQHYFSPLTFGQGTKLEIK
notes: Humanised
Turning to B1, the “HL-60 EC50 (normalized)” value in [1] was 1.3 fold. In addition, the EC50 in experiment [2] is 2.5 nM.

B2: 19L04.008 (antibody, IgG4, V domains shown)
VH: QIQLVQSGAEVKKPGASVKVSCKASGYTFTTYGMSWVRQAPGQGLKWMGWINTYSGVPTYADDFKGRFTFTLDTSISTAYMELSRLRSDDTAVYFCARHYYGSHYFDYWGQGTLVTVSS
VL: B1 VL with I21L, D66V, Y93F
notes: Humanised
Turning to B2, the “HL-60 EC50 (normalized)” value in experiment [1] was found to be 1.5 fold. The molecule further yielded an EC50 in experiment [2] of 2.9 nM.

B3: 19L04.004 (antibody, IgG4, V domains shown)
VH: B2 VH
VL: B1 VL
notes: Humanised
On to B3, for which, in experiment [1], the “HL-60 EC50 (normalized)” value was 4.5 fold. The molecule further returned an EC50 in [2] of 8.9 nM.

B4: 19L04.006 (antibody, IgG4, V domains shown)
VH: B1 VH
VL: B1 VL with I21L, D66V, Y93F
notes: Humanised
As to B4, the “HL-60 EC50 (normalized)” value in experiment [1] stood at 1.8 fold. In [2], this molecule had a half-maximal effective concentration (EC50) of 3.5 nM.

B5: 18L13 (antibody, V domains shown)
VH: EVQLQQSGAELVRPGASVKLSCTASGFNIKDDFMHWVKQRPEQGLEWIGRIDPASGKTEYVPKFQDKATLTADTSSNTAYLQLSSLTSEDTAVYYCARRIAYWGQGTLVTVSA
VL: DVVMTQTPLTLSVTIGQPASISCKSSQSLLHSNGKTYLNWLLQRPGQSPKLLIYLVSKLESGLPDRFSGSGSGTDFSLKISRVEAEDLGVYYCLQTTHFPQTFGGGTKLEIK
notes: Mouse hybridoma mAb; only variable domains given
In the case of B5, the EC50 in experiment [3] was 0.76 nM; in [4], 2.63 nM; in experiment [5], 0.914 nM; in experiment [6] it was 0.764 nM. Moreover, the “% max Block” value in experiment [7], in [8] and in experiment [9] was 0% in each case.

B6: 20I15.001 (antibody, IgG4, V domains shown)
VH: EVQLVESGGGLVQPGGSLRLSCAASGFTFTDYYMSWVRQAPGKGLEWLGFIRNKANGYTTEYSASVKGRFTISRDNSKNSLYLQMNSLKTEDTAVYYCARTYLRRGYFDVWGQGTLVTVSS
VL: DIQLTQSPSTLSASVGDRVTITCRASKSVSTSGYSYMHWFQQKPGKAPKLLIYLASNLESGVPSRFSGSGSGTEFTLTISSLQPDDFATYYCQHSRELPLTFGQGTKLEIK
notes: Humanised; also called 20115.001
For B6, the “HL-60 EC50 (normalized)” value in experiment [10] stood at 0.4 fold. The same molecule yielded a 50% effective concentration (EC50) in experiment [2] of 0.5 nM.

B7: 20I15.006 (antibody, IgG4, V domains shown)
VH: B6 VH with N56S
VL: B6 VL with Q3V, E74D
notes: Humanised
B7: the “HL-60 EC50 (normalized)” value in [10] amounted to 0.6 fold. For the same molecule, the EC50 in [2] was found to be 0.8 nM.

B8: 20I15.003 (antibody, IgG4, V domains shown)
VH: B6 VH with Q3K, K78Q
VL: B6 VL
notes: Humanised
For the molecule B8, the “HL-60 EC50 (normalized)” value in experiment [10] is 1.1 fold. In addition, in experiment [2], it took 1.6 nM to reach a half-maximal effect (EC50).

B9: 20I15.005 (antibody, IgG4, V domains shown)
VH: B6 VH
VL: B6 VL with Q3V, E74D
notes: Humanised
On to B9, for which, in [10], the “HL-60 EC50 (normalized)” value stood at 0.9 fold. In experiment [2], the response was half-maximal at 1.3 nM (EC50).

B10: 20I15.007 (antibody, IgG4, V domains shown)
VH: B6 VH with Q3K, K78Q
VL: B6 VL with Q3V, E74D
notes: Humanised
As to B10, the “HL-60 EC50 (normalized)” value in experiment [10] stood at 0.6 fold. Moreover, the EC50 in experiment [2] stood at 0.8 nM.

B11: 20I15.002 (antibody, IgG4, V domains shown)
VH: B6 VH with N56S
VL: B6 VL
notes: Humanised
Turning to B11, the “HL-60 EC50 (normalized)” value in experiment [10] came out at 0.7 fold. In experiment [2], this molecule had an EC50 of 1 nM.

B12: 20I15.008 (antibody, IgG4, V domains shown)
VH: B6 VH with Q3K, N56Q, K78Q
VL: B6 VL with Q3V, E74D
notes: Humanised
Turning to B12, in [10], the “HL-60 EC50 (normalized)” value amounted to 1.1 fold. The concentration for a half-maximal effect (EC50) in [2] was determined as 1.6 nM.

B13: 20I15.004 (antibody, IgG4, V domains shown)
VH: B6 VH with Q3K, N56Q, K78Q
VL: B6 VL
notes: Humanised
Turning to B13, the “HL-60 EC50 (normalized)” value in [10] was found to be 0.7 fold. For the same molecule, the concentration giving a half-maximal response (EC50) in experiment [2] was 1 nM.
